± gives the half width of the 95% confidence interval.
How the values were obtained:
[1] = folding stability dG unfold from trypsin proteolysis; higher = more stable
Method in brief: (§1)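 Digests were run with trypsin and chymotrypsin at 11 concentrations in threefold dilutions, plus a no-protease condition, on designed mini-proteins in a PA-tagged cDNA display construct. The mini-proteins were under 80 residues, had no cysteine, and were kept only when AlphaFold2 dimer inter-PAE was above 15. After sequencing, Bayesian fitting of the counts gave K50, from which unfolding free energy was derived against a sequence-predicted unfolded-state K50 and a shared folded-state K50, per protease or combined.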

[2] = folding stability dG unfold from chymotrypsin proteolysis; higher = more stable
Method in brief: as §1

[3] = folding stability dG unfold (combined trypsin and chymotrypsin); higher = more stable
Method in brief: as §1

Sequence	folding stability dG unfold [1] [kcal/mol]	folding stability dG unfold [2] [kcal/mol]	folding stability dG unfold [3] [kcal/mol]
SAGGSAAPLPPDETEVRVEYRYDPEKGVLVITTTTTRFTPEGGATPLETRPVVVEVTEEEKKKVELSAGGSA [r15_191_JUSTAS]	1.25 ± 0.046	1.04 ± 0.095	1.17 ± 0.1
SAGGSAAPVSRVVELEFVLPPELVAEAVDALRKLPGVKASFELAEVLPDGYVRVRVTIEVPDDVDLSAGGSA [r15_441_TrMRF]	3.46 ± 0.11	3.95 ± 0.073	3.8 ± 0.073
SAGGSAASVVEKTLSPDGTLFVTIKVDPEKKSVPFSITTPDGTPVTVTLPPNTTKTVRVPLGEAALSAGGSA [r15_336_JUSTAS]	-0.678 ± 0.28	-0.553 ± 0.27	-0.39 ± 0.15
SAGGSAAVDLSERPPALPVPLKVEVIPIPETGSSLVLVTHPDGFVLLARVNPEGEVELLSAFSLDDSAGGSA [r15_790_TrMRF]	1.56 ± 0.066	2.86 ± 0.074	2.51 ± 0.14
SAGGSAAVTITSVPPDGTIRATATNPTNGETVTITFSPETSPEEAVAAIQKELGGPVPVTAVTPAGSAGGSA [r15_544_JUSTAS]	0.975 ± 0.033	1.57 ± 0.062	1.42 ± 0.1
SAGGSADDVKIKVEYERNPENGYGQITVEVEDPDGKDLKVEIMFPNMTPEEMEKQAKDIAKEIAKKSAGGSA [r15_526_TrROS]	-0.526 ± 0.21	1.26 ± 0.19	0.719 ± 0.23
SAGGSADELVVRLRVRDPRTERPLEIDLPVPASLTPEEAIARAERLAAAFRSLGLETEVEVEPVPRSAGGSA [r15_268_TrMRF]	1.45 ± 0.035	1.88 ± 0.042	1.73 ± 0.046
SAGGSADENKKPMYFIMVKIEIKFGGKDHKIEIMIPLDNVEKLAKNIAEELGMEIKDVTVSLYPIDSAGGSA [r15_535_TrROS]	2.79 ± 0.13	4.18 ± 0.12	3.77 ± 0.15
SAGGSADNIEFKFPGIEEVTVWPDKIMFKLPNGYYYVITINNIDEIEIIEVIPPVPPPPPEDPDDKSAGGSA [r15_393_TrROS]	2.38 ± 0.39	2.29 ± 0.11	2.4 ± 0.34
SAGGSADSVTFTDPNVEEQIVIPPYVIFKYPDGSVRIIAFDDGDKAEILEEIPFVPPLEPLHPDLESAGGSA [r15_393_TrMRF]	0.84 ± 0.03	1.11 ± 0.076	1.06 ± 0.17
SAGGSADYVFVRIEVRDPKNKQPMSIMIPVPPDMTPDEAIEEAEMIANTFKEKGLEITVEVEPMPPSAGGSA [r15_268_TrROS]	1.44 ± 0.24	1.56 ± 0.13	1.45 ± 0.22
SAGGSAEEAEELARRLAAELQAETGLEVTVEVRYDEETDTVVIRMTVRDRATGEERTLELTLRLPDSAGGSA [r15_464_TrROS_Hall]	3.04 ± 0.063	3.72 ± 0.052	3.51 ± 0.059
SAGGSAEEEVVETEVVYDPETKELHVRTKVFKPKPEITIEVDMSLEEVKALLEELTGRKIDRVEIKSAGGSA [r15_101_TrROS_Hall]	0.433 ± 0.035	1.68 ± 0.05	1.34 ± 0.084
SAGGSAEIAEKNGFKITVELHRYNDYIMVEIEIRWPGGQEFTVTIMIKIKIVPPKPPVDPNDPDNNSAGGSA [r15_843_TrROS]	4.47 ± 0.61	4.47 ± 0.12	4.48 ± 0.51
SAGGSAEIEGLEFEIVEVTEVRVLPDGTVEITLRVRLPDGSYLRITITVSPDGTVTIDIELLPADESAGGSA [r15_559_TrROS_Hall]	4.51 ± 0.21	4.18 ± 0.1	4.48 ± 0.18
SAGGSAEIEITVTVPPEMTEEEIKEQLEAELQRLTGEKVEIVDIRVEEVNGELTVTVKIKIEPAPPSAGGSA [r15_105_TrROS_Hall]	3.04 ± 0.28	2.71 ± 0.2	2.85 ± 0.3
SAGGSAEIELPEGAKVEVTEVEVDGELYLRMKVVDEETGEVFVMEMRMRPDGEMEMEVKKIPKEELSAGGSA [r15_986_TrROS_Hall]	1.3 ± 0.19	2.2 ± 0.34	1.85 ± 0.27
SAGGSAEIEVTVYYDPETGEILVLINFPDETKFEVAVEEFKKLFEKVEAVKLPDGSVLVRSPLKDASAGGSA [r15_1057_TrMRF]	1.65 ± 0.12	1.7 ± 0.071	1.59 ± 0.12
SAGGSAEIWIWMPYDMIESLAKKAGDPNVKVEPVEPPDDNPGEPYWFKITLKDNGKPKREIEFWFPSAGGSA [r15_428_TrROS]	1.34 ± 0.031	2.67 ± 0.045	2.23 ± 0.15
SAGGSAELAKALGLKVTVEVEEEDGYLTVKVTVTGPNGEEKTFTMVIKIEPLPPPKKVKKGDKKNKSAGGSA [r15_843_TrROS_Hall]	2.44 ± 0.26	3.74 ± 0.13	3.62 ± 0.21
SAGGSAEPRPVVVVFEGTEEEVEELVQKVRDEGFAIDFKVEPLPDPRYYRATVIVRDPDGSWTAKLSAGGSA [r15_177_TrMRF]	2.07 ± 0.046	2.11 ± 0.041	2.12 ± 0.04

Sequence	folding stability dG unfold [1] [kcal/mol]	folding stability dG unfold [2] [kcal/mol]	folding stability dG unfold [3] [kcal/mol]
SAGGSAETAIDLGPPNTTGVLEIEYFDENGNTRRATATFDPNPATISFNEPVEIPPNARIEIKPTSSAGGSA [r15_198_TrMRF]	-0.405 ± 0.21	0.857 ± 0.064	0.545 ± 0.14
SAGGSAETITVMIPPNFLKKLKDQGIKIPPGYPWITITVTYNPDGKIKIKVQIQPMPPVSPEDMKKSAGGSA [r15_322_TrROS]	1.44 ± 0.091	2.72 ± 0.3	2.29 ± 0.34
SAGGSAETLVITLPPELEGLSEEELLALLKALLPPGAEITEIRVERLPDGSLRVTVTVRVPPPEEPSAGGSA [r15_451_TrROS_Hall]	3.33 ± 0.24	2.18 ± 0.061	2.65 ± 0.15
SAGGSAEVRVVAEPLPDDYLLVLVEFDSPEVLPEALEAIPGVVEVRAYRFLEEGRPRYRVLALVPASAGGSA [r15_344_TrMRF]	1.4 ± 0.024	2.02 ± 0.059	1.8 ± 0.06
SAGGSAEVVEREEYFEEKLPNGEKVKVRRIVTEITPIPGLPGYRVEYTVTVEIGDEWETYPLEVAESAGGSA [r15_465_JUSTAS]	1.53 ± 0.08	1.51 ± 0.026	1.61 ± 0.064
SAGGSAEVYKVKIKIERVLPNGEKVEEEITIEVEGMSEEELLALARELAAEPGVRIKEIEIEKLPPSAGGSA [r15_550_TrROS_Hall]	4.82 ± 0.24	4.54 ± 0.19	4.65 ± 0.38
SAGGSAFEEVKKKYPNAKWEKIGDEGDTAVYRLTFPGGEKILITVPTLPETDEPVVEVTYVPKGEESAGGSA [r15_547_JUSTAS]	2.71 ± 0.093	2.842 ± 0.017	2.82 ± 0.059
SAGGSAFKLTFKNMKIESKMPNPDGQKMIRIEWPDGLSIMIHPPNAIWIMPKDDPEMPPGDMVPIDSAGGSA [r15_692_TrROS]	0.695 ± 0.25	0.782 ± 0.28	0.953 ± 0.28
SAGGSAFPTIAESPGVVKIEPLPDGTIKITFNTSEEAKEKIIEELKKLGNFNVEEDPEKPVLIVKKSAGGSA [r15_554_JUSTAS]	1.7 ± 0.087	2.95 ± 0.059	2.6 ± 0.098
SAGGSAGAPLVLAEVELDPETGEVRIRVYDPVTGKVYEYTTPGSLADAIREIERETGIPITEVVVASAGGSA [r15_101_TrMRF]	3.47 ± 0.099	3.73 ± 0.073	3.63 ± 0.077
SAGGSAGDPSLPQPQYIAFLLVTKPGGVEEPLEVEVKTEEEAEKIAQEVRDAGYEVELELRPAALLSAGGSA [r15_906_JUSTAS]	1.72 ± 0.16	0.945 ± 0.28	1.44 ± 0.38
SAGGSAGEIEGEEAAKLVEDALRALDPNVRVEYEPLPGEKPLLLVRVYRVDPESGAETPLATLLIGSAGGSA [r15_682_TrMRF]	1.78 ± 0.05	2.69 ± 0.066	2.4 ± 0.077
SAGGSAGETVYRVKIRVNGEELEIEVSAEELEALKALPGLEIELVRVEPAPPPEREETVVPEEEEESAGGSA [r15_443_TrROS_Hall]	3.43 ± 0.17	3.36 ± 0.13	3.43 ± 0.12
SAGGSAGGAANIPADQTLEFPTPDGYRRRLTYYPDEGLLVAEYVNPADGTPTFYTFDIPPDSTLSAGGSAGG [r6_406_TrMRF]	0.864 ± 0.048	1.43 ± 0.084	1.21 ± 0.057
SAGGSAGGAEIVEIEVRKEKRPDGKEVLTVKVKIKLENGEEIEVTVREGMTLEEALKKAKELLKSAGGSAGG [r6_986_TrROS_Hall]	2.1 ± 0.086	2.75 ± 0.12	2.56 ± 0.14
SAGGSAGGAELKPVGNDPETGKTAVILLKKPDPTGLVLALEGLSPEELKKLAEIPGYEAVAVLASAGGSAGG [r6_185_TrMRF]	0.996 ± 0.037	0.213 ± 0.23	0.787 ± 0.071
SAGGSAGGAPQGSTSSLTDPSTGLRYASTNPPGTSSSFTFPPSVSPEEVAARLRAQGVAGLNLSSAGGSAGG [r6_83_JUSTAS]	-0.81 ± 0.35	0.339 ± 0.073	0.0679 ± 0.081
SAGGSAGGAVDPALVSEETTSTSYYPDGTVVTTTTLKVPGKGTTVTLTTVTPLPPSSPSPSASLSAGGSAGG [r6_758_JUSTAS]	1.13 ± 0.043	0.437 ± 0.077	0.761 ± 0.23
SAGGSAGGDALKELIKNMPPGEPRKITIPIKYEDGRYYRIDIEIQMNPNNGEWQLDIDIEPYPPSAGGSAGG [r6_545_TrROS]	0.881 ± 0.089	2.46 ± 0.054	1.91 ± 0.25
SAGGSAGGDEKAKEELKKKKPPKIELTVKVEVEVSEDGTVKVKAKVFGPDGKLIAEAEFTFKVKSAGGSAGG [r6_419_TrROS_Hall]	1.67 ± 0.19	2.5 ± 0.12	2.58 ± 0.38
SAGGSAGGDIEVRPVGVVPTPDGRLVRVEEVTFPETGRTLLVAVDLEPGRVYVFDPETGEWREESAGGSAGG [r6_114_TrMRF]	0.502 ± 0.091	1.76 ± 0.02	1.41 ± 0.075
